Test results from patent US11278600B2, “Human alpha-galactosidase variants” (Codexis, Inc., priority 2014, dated 2022).
Changes are numbered by the printed parent chain.

B1: 650 (protein)
chain: LDNGLAHTPPMGWLHWERFMCNLDCQEEPDSCISEKLFMEMAERMVTEGWKDAGYEYLCIDDCWMAPQRDSEGRLQADPQRFPHGIRQLANHVHSKGLKLGIYADVGNKTCAGFPGSFGYYDIDAQTFADWGVDLLKFDGCYCDSLENLADGYKHMSLALNRTGRPIVYSCEWPLYMWPFQKPNYTEIRQYCNHWRNFADIDDSWASIKSILDWTSRNQERIVDVAGPGGWNDPDMLVIGNFGLSWDQQVTQMALWAIMAAPLFMSNDLRAISPQAKALLQDKDVIAINQDPLGKQGYQLRKGDNFEVWERPLSGDAWAVAIINRQEIGGPRSYTIPVASLGKGVACNPACFITQLLPVKRQLGFYNWTSRLKSHINPTGTVLLQLENTMQTSLKDLL
modifications: Synthetic Polypeptide sequence of Variant No. 650 of mature Human GLA
B2: 651 (protein)
chain: B1 chain with H7R
modifications: Synthetic Polypeptide sequence of Variant No. 651 of mature Human GLA
B3: 652 (protein)
chain: B1 chain with H7R, P10T, W246P, A261G, N305L
modifications: Synthetic Polypeptide sequence of Variant No. 652 of mature Human GLA
B4: 653 (protein)
chain: B1 chain with H7R, W246P
modifications: Synthetic Polypeptide sequence of Variant No. 653 of mature Human GLA
B5: 654 (protein)
chain: B1 chain with H7S, P10T
modifications: Synthetic Polypeptide sequence of Variant No. 654 of mature Human GLA
B6: 655 (protein)
chain: B1 chain with H7R, P10T, W246P, A261G, N305L, W368A
modifications: Synthetic Polypeptide sequence of Variant No. 655 of mature Human GLA
B7: 656 (protein)
chain: B1 chain with H7R, W246P, A261G
modifications: Synthetic Polypeptide sequence of Variant No. 656 of mature Human GLA
B8: 657 (protein)
chain: B1 chain with H7R, P10T, P67T, K182N
modifications: Synthetic Polypeptide sequence of Variant No. 657 of mature Human GLA
B9: 638 (protein)
chain: B1 chain with H7R, A261G
modifications: Synthetic Polypeptide sequence of Variant No. 638 of mature Human GLA
B10: 658 (protein)
chain: B1 chain with H7R, P10T, M39E, W246P
modifications: Synthetic Polypeptide sequence of Variant No. 658 of mature Human GLA
B11: 659 (protein)
chain: B1 chain with H7R, P10T, W64L
modifications: Synthetic Polypeptide sequence of Variant No. 659 of mature Human GLA

Assay: HTP-analysis of yeast culture supernatants, no challenge (MUGal hydrolysis)
Format: biochemical
Conditions: activity of the variant/activity of Rd7BB (SEQ ID NO: 44)
Summary of the method: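 GLA variants were expressed in INVSc1 yeast grown in SD-Ura broth with glucose at 30° C., and culture supernatants were collected after 66-84 h. Supernatant was mixed with McIlvaine buffer pH 4.8 and MUGal (2 mM stock) in 50 mM citrate, 200 mM KCl, pH 4.6, incubated at 37° C. for 30-180 minutes, then quenched with sodium carbonate.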

Molecule	Relative Activity of GLA Variants After No Challenge (NC)
B1	+ (>0.5 to 1.5 relative activity over Rd7BB (SEQ ID NO: 44))
B2	+ (>0.5 to 1.5 relative activity over Rd7BB (SEQ ID NO: 44))
B3	+ (>0.5 to 1.5 relative activity over Rd7BB (SEQ ID NO: 44))
B4	+ (>0.5 to 1.5 relative activity over Rd7BB (SEQ ID NO: 44))
B5	+ (>0.5 to 1.5 relative activity over Rd7BB (SEQ ID NO: 44))
B6	+ (>0.5 to 1.5 relative activity over Rd7BB (SEQ ID NO: 44))
B7	+ (>0.5 to 1.5 relative activity over Rd7BB (SEQ ID NO: 44))
B8	+ (>0.5 to 1.5 relative activity over Rd7BB (SEQ ID NO: 44))
B9	− (<0.5 relative activity to Rd7BB (SEQ ID NO: 44))
B10	+ (>0.5 to 1.5 relative activity over Rd7BB (SEQ ID NO: 44))
B11	− (<0.5 relative activity to Rd7BB (SEQ ID NO: 44))

Assay: HTP-analysis of supernatants pretreated with base (MUGal hydrolysis)
Format: biochemical
Conditions: activity of the variant/activity of Rd7BB (SEQ ID NO: 44); challenge at pH 7.5
Summary of the method: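 Supernatants from INVSc1 yeast expressing GLA variants (SD-Ura, 66-84 h, 30° C) were mixed with McIlvaine buffer pH 7.0-8.2 or 200 mM sodium bicarbonate pH 9.1-9.7 and held 1-18 h at 37° C. Residual activity was then measured on MUGal at pH 4.8/4.3, 37° C, 30-180 min, by fluorescence (Ex 355/Em 448 nm).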

Molecule	Relative Activity of GLA Variants After Challenge at pH 7.5
B1	+ (>0.5 to 1.5 relative activity over Rd7BB (SEQ ID NO: 44))
B2	+ (>0.5 to 1.5 relative activity over Rd7BB (SEQ ID NO: 44))
B3	− (<0.5 relative activity to Rd7BB (SEQ ID NO: 44))
B4	+ (>0.5 to 1.5 relative activity over Rd7BB (SEQ ID NO: 44))
B5	+ (>0.5 to 1.5 relative activity over Rd7BB (SEQ ID NO: 44))
B6	− (<0.5 relative activity to Rd7BB (SEQ ID NO: 44))
B7	+ (>0.5 to 1.5 relative activity over Rd7BB (SEQ ID NO: 44))
B8	+ (>0.5 to 1.5 relative activity over Rd7BB (SEQ ID NO: 44))
B9	− (<0.5 relative activity to Rd7BB (SEQ ID NO: 44))
B10	+ (>0.5 to 1.5 relative activity over Rd7BB (SEQ ID NO: 44))
B11	− (<0.5 relative activity to Rd7BB (SEQ ID NO: 44))

Assay: HTP-analysis of supernatants pretreated with acid (MUGal hydrolysis)
Format: biochemical
Conditions: activity of the variant/activity of Rd7BB (SEQ ID NO: 44); challenge at pH 3.5
Summary of the method: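 Fluorescence of MUGal hydrolysis (Ex. 355 nm, Em. 448 nm) is read after sodium carbonate quench. The enzyme source is INVSc1 yeast culture supernatant, first exposed to pH 3.3-4.3 McIlvaine buffer at 37° C. for 1-3 h, then reacted at pH 4.8 for 30-180 minutes.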

Molecule	Relative Activity of GLA Variants After Challenge at pH 3.5
B1	+ (>0.5 to 1.5 relative activity over Rd7BB (SEQ ID NO: 44))
B2	+ (>0.5 to 1.5 relative activity over Rd7BB (SEQ ID NO: 44))
B3	+ (>0.5 to 1.5 relative activity over Rd7BB (SEQ ID NO: 44))
B4	+ (>0.5 to 1.5 relative activity over Rd7BB (SEQ ID NO: 44))
B5	+ (>0.5 to 1.5 relative activity over Rd7BB (SEQ ID NO: 44))
B6	− (<0.5 relative activity to Rd7BB (SEQ ID NO: 44))
B7	+ (>0.5 to 1.5 relative activity over Rd7BB (SEQ ID NO: 44))
B8	+ (>0.5 to 1.5 relative activity over Rd7BB (SEQ ID NO: 44))
B9	− (<0.5 relative activity to Rd7BB (SEQ ID NO: 44))
B10	+ (>0.5 to 1.5 relative activity over Rd7BB (SEQ ID NO: 44))
B11	− (<0.5 relative activity to Rd7BB (SEQ ID NO: 44))
